Test results from the RNAGym collection of RNA variant scans (doi:10.1073/pnas.2313332121).
Variants at the floor of the assay were thinned out.

B1: TPR 5TU (parent)
chain: GGAUCUUCUCGAUCUAACAAAAAAGACAAAUCUGCCACAAAGCUUGAGAGCAUCUUCGGAUGCAGAGGCGGCAGCCUUCGGUGGCGCGAUAGCGCCAACGUUCUCAACUAUGACACGCAAAACGCGUGCUCCGUUGAAUGGAGUUUAUCAUG

Variants of: B1
Experiment: polymerase ribozyme fitness, log enrichment relative to wild type (log ratio); higher = more active; in vitro selection for triplet polymerase activity
In short: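 Genotype fitness is the logarithm of its enrichment divided by wild-type enrichment, using inverse-variance-weighted averages of replicates. That logarithm is base 2. Enrichment was measured by Illumina sequencing of input and output libraries from one triplicate in vitro selection round, with frozen incubation at −7 °C, on PCR-built, transcribed mutant libraries of each subunit of a heterodimeric triplet polymerase ribozyme, retaining genotypes with ≥10 input reads and ≥1 read per output.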

Variant | polymerase ribozyme fitness (log ratio)
U4G C27U A97U | -2.22
U4G A28G A91G C93U A115U G133A | ≤ -4.2
U4G G50C A73G U102C | ≤ -4.2
U4G U31G G50C G68A C75A G86U C95U U101A | ≤ -4.2
C5A U7C C18G U55A G58A A89C | -1.54
C5A A19U G86C A147C | -3.38
C5G A19G A29C A39C U145C | ≤ -4.2
U4G A21U U31A G84U A115C | -3.65
U4G C79A C93A | ≤ -4.2
C5G A28G A30C C36U A47U C57U C85A A91U C118U A120G C125G A142G | ≤ -4.2
U4A G84A | -0.288
U4G A23U U44G C51U C76G C96U U148C | ≤ -4.2
C5A A21U G50A C85A C96A C118G G133C C149U | ≤ -4.2
U4G C69G C96U A142C | -3.64
C5A C54U U55A C95G C96A | -4.05
U4C A16C A19U G86U C96A C108A | ≤ -4.2
U4C A16G A21G A41C A49U U56A G86A U135A A150G | ≤ -4.2
U4G A106G | -0.112
U4C C14U U15A A41C C93A C95U | ≤ -4.2
U4G A40C A49G C96A | -3.02
U4C C35U A47C U78G G136C | ≤ -4.2
U4C A22U A26U A40C A52U G67A U90A C99A A150U | ≤ -4.2
C5G A21U A49G C93A A137U | ≤ -4.2
U4G A21G A52G G141A | -2.63

Variant | polymerase ribozyme fitness (log ratio)
C5A A37U C51U U56A C79A C96G C116G G133C | ≤ -4.2
U4G A97U | 0.0622
U4G A16G C54U G62C G71A U101G C105U A142G U144A | ≤ -4.2
U4G U7G A49U C75G C93U | ≤ -4.2
C5A A28U U55A C57G C96U G141U | ≤ -4.2
C5A U15C U56A C105G A107C G117U U139C G143C U148C | ≤ -4.2
U4C C103A U139C | -3.94
U4G C93U | -0.624
C5G A20G C51U A106G | -1.64
U4G U9A C35A G48C U134G | ≤ -4.2
C5A G92A U104G A120U C123A U130G | ≤ -4.2
U4G U55G | -0.607
U4C C18G A52G C54U G70A A91C C93A G128U G133C U151C | ≤ -4.2
U4C C18U G48U A49C G68U G74A C76A G88U C116G | ≤ -4.2
C5G A89G C96U U135G | ≤ -4.2
U4G A40C A137G | -1.84
C5A C79A G88A A106C | ≤ -4.2
U4G C38U G58A C95U C96U U127C | -3.54
C5G A28G G48C G83C U104G G133U | ≤ -4.2
U4A G11C A20U A28U G143U U146G | ≤ -4.2
U4C C85U U101G A147C | -0.704
U4G C8A U31A U55A C87U U101C G133C | ≤ -4.2
C5G A52G G83C C93U | -3.55
U4C U31C C76G C116G | ≤ -4.2

Variant | polymerase ribozyme fitness (log ratio)
C5G A37C G81A | -1.37
C5A A28G C35G A37U C85G C96G C103G U151A | -3.65
U4C C57A C87A U146A A150C | ≤ -4.2
C5A C51U | -0.595
C5A C32A U56A C85U A113C | ≤ -4.2
C5A U6G U13G U53A C116G G126U | -3.78
U4C G48A | -1.42
U4C U7G C27U U31A G68U G88U | ≤ -4.2
U4C C10A A12U U53A G88C C96A | ≤ -4.2
U4G A21C C93G | -1.92
C5A C38U G59A C87G C103A A121U G126A U146C | ≤ -4.2
U4G A20C C85U | -0.147
U4G G48U G84A C93A G133A G141C | ≤ -4.2
C5G A12C A40U G58C G83U C118G | -3.96
U4A U53A U82A A91U A115G U148G | ≤ -4.2
U4G C8G A23C A52G C54G G74C | ≤ -4.2
C5A C85U C93U | -1.66
U4A U15G A91C C114U C125A | ≤ -4.2
C5A A20C | 0.413
U4C A19U G86U | -2.06
U4C C5A C10U U33A G88C C116U G140A | ≤ -4.2
C5A C18G A40U | -0.118
U4G U9C A23U C43A U56G C87U U111G C132U | ≤ -4.2
U4G U13A C57A A106C G136A | -1.91

Variant | polymerase ribozyme fitness (log ratio)
C5A C54U C87U U148C | -2.76
C5G A23G G50C A52C C69G A119G | ≤ -4.2
C5G A73U G124A | -1.49
U4C C8A A39G U55A G88U C93U U102G | ≤ -4.2
U4G U13G A30C U31A G50U C95U C103A C105U | ≤ -4.2
U4C A12C A24U C27G A28G U44A G88A C116U G143A | ≤ -4.2
U4C U15G U77A G92U C99G | ≤ -4.2
C5A C38U A66C C72U C79A C96A G117A | ≤ -4.2
C5A A30G C36U G68U G100A | ≤ -4.2
C5A A17C G88A G117U | -3.46
U4A U45A C57U A91C | ≤ -4.2
U4G U33G C75A C87G U109A A113U G117U | ≤ -4.2
C5A G86U A107G G152A | ≤ -4.2
C5A U6A G94U C123U U148G | ≤ -4.2
C5A U13A A24G U82C G100C | ≤ -4.2
U4C A21U C57G A60G C85A A89C G94A | -2.06
U4G C87A | ≤ -4.2
C5G A19C G42U C79U C105U G126U | ≤ -4.2
U4C A12G U31G G94C A121G | -0.0351
U4C A12U C57G C85U A98G G128U | ≤ -4.2
C5A A12G A23C G84A | -4.02
C5A U56A G58A C72U C87U U109G G136A U144C | -3.93
C5A U77A C87A | ≤ -4.2
C5A U7G G88U C105G G136A A137U G152U | ≤ -4.2

Variant | polymerase ribozyme fitness (log ratio)
U4G G84A U109A A115C C123A | -2.01
U4A U33A G48C C57U C85U A115G C129G G141U | ≤ -4.2
U4G U53A C85U G133C | -2.45
C5A A26U A52G G86A G88C A113U G141A | ≤ -4.2
U4C A16C A17C | -0.602
C5A A16U A52G A106G | -3.09
U4G A22U A37C C95A C96A U127G | ≤ -4.2
U4C G11U G42C G48A U53G C57G G81U C85U | ≤ -4.2
C5A A17U U45A G71C G84A A89U U104G U145G | ≤ -4.2
C5A C85G C105U | -1.21
C5A A49U C57A | -0.832
U4G A16C A28U C38U U55A C75G U111C A122U A142C | ≤ -4.2
U4G A12G A17G C93U G141C | -3.94
U4C C5G A20U | -1.25
C5A G141U | 0.735
C5G A41U G59C G84A | -2.99
U4C C10G A28C A49C G86A C99G U104G | ≤ -4.2
C5A C69G G84A C108U | -3.39
U4C G11A G68A C72A G83U C93G G140A U148C | ≤ -4.2
C5A C27U C75A A142G U146G | ≤ -4.2
U4C G42A A49C G50C C51U C79G A91U A121G | ≤ -4.2
U4G A17U C51U A52U C57A C75G G83U G117U G136U | ≤ -4.2
C5G A37U G141U | -1.94
U4G A23C C79A G92C G100A | ≤ -4.2

Variant | polymerase ribozyme fitness (log ratio)
U4C A22G G86A | -1.64
C5A G86C G92U | -3.93
C5A C85U G86C A119C A120C | -3.07
U4G A41U A91C A97U | ≤ -4.2
U4C A20G C85A A98C A115G | -2.8
C5A A17U G83U C87G | ≤ -4.2
U4G G84A C87U A106C G141A U144G | ≤ -4.2
U4A G34U U61G G70A C99U A107C U139G | ≤ -4.2
C5G A20C G48C U56A G62A | -4.11
U4G U7G A20U C57U A91U C123U A150U | -3
C5A U9A A41G C76G A91U G126A G136A | ≤ -4.2
C5A G81A | 0.566
C5A A41G G58A A60C G84A A106U C131U U146A | -3.76
U4G C5G A29G A52U G67U C79G G83A | ≤ -4.2
U4C G11U A49G U61A G80C A98G G141A | ≤ -4.2
U4C | 0.371
U4G | -0.0773
U4A G59A | -1.06
U4G A40G C72G C87U U104G C118U A122G | ≤ -4.2
U4G C54G A64U C95U U134G | ≤ -4.2
C5A C96U | 0.321
U4C C5A C87A A91G U145A | ≤ -4.2
U4A G83C G94U U148G | ≤ -4.2
U4C A17G C18A C57A G59A G68A C96A A107U A121U C123G | ≤ -4.2

Variant | polymerase ribozyme fitness (log ratio)
U4A G25U C35U C87A C93G | ≤ -4.2
U4C G58U C75A A91U U104G U144A C149U | ≤ -4.2
C5A U44A A73U C79U C85U G126U | ≤ -4.2
C5A A47G C79A G83U G140A U146G | ≤ -4.2
C5A U148G | -3.62
C5A C87U | -0.502
C5G A23C C72U G88U C132G U135G U148G | -3.99
U4G A19U C43U C87U A98G | ≤ -4.2
U4G A19C G58U C69U C96A | -0.414
C5A U61A U102G | ≤ -4.2
U4G C35U G83C G124U U146C | -2.43
U4G U56A A60C C76G A91C C95U A142C | ≤ -4.2
C5A U45C A64U C75A G141C U145C A150U | ≤ -4.2
C5A A20C C35A G62A C76A C96G G140A G143C | ≤ -4.2
U4C G50A G83A C87A A91C G92A U146A | ≤ -4.2
C5A C87U C129A | -3.51
C5A U45C G58U U82C G84A | -3.97
C5G A20U C35U G50U C93U | -3.76
U4C A17U G50U G58A G92C C99U G117U | ≤ -4.2
C5A A16U G46C G84U A91G U109C A115U G136C | ≤ -4.2
U4C C57A C95A C96U G141A | -3.87
C5A C57U C85U | 0.39
U4C C10U U56G A60U G92U | -3.76
